We go through eight substances from patent US20140303356A1.

For assay [1], the target named is CH2-CH3 construct G4-S364D (human). Nature of the assay: native MS, monomer-dimer equilibrium of CH2-CH3 fragment.
Assay [2] addresses CD20 on Daudi and Raji cells (UniProt P11836).
Assay [3] has as its target recombinant extracellular domain of EGFR (UniProt P00533). Nature of the assay: sandwich ELISA: EGFR extracellular domain coated, detection with anti-idiotype 2F2 SAB1.1.
The target in assay [4] is CH2-CH3 construct G1-F405L (human). Nature of the assay: native MS, monomer-dimer equilibrium of CH2-CH3 fragment, homodimer.
Assay [5] has as its target IgG1Δhinge fragment of IgG1-7D8-K409R. Nature of the assay: native MS, CH2-CH3 fragment mixed with IgG1Δhinge fragment for 24 hours, heterodimer.
The target in assay [6] is CD20 on Daudi and Raji cells (UniProt P11836). The source holds these as a separate data set.
Assay [7] concerns the target CH2-CH3 construct G4-K370E (human). The experiment in a line: native MS, monomer-dimer equilibrium of CH2-CH3 fragment.
The target of assay [8] is CH2-CH3 construct G1-K370T (human). The assay is described as above.
Assay [9] concerns the target CH2-CH3 construct G1-K409R (human). Described as above.
The target is the same in assay [10]. The experiment in a line: native MS, monomer-dimer equilibrium of CH2-CH3 fragment, homodimer.
In assay [11] the target is CH2-CH3 construct G4-K370Q (human). The experiment in a line: native MS, monomer-dimer equilibrium of CH2-CH3 fragment.

Like-named read-outs stand apart in the source and are kept apart here.

Turning to CH2-CH3 construct G4-S364D, in assay [1], the Kd was determined as 47 nM and the fold-difference (against wild type CH2-CH3 fragment) was found to be 1.02 fold.
“bispecific antibody generated by 2-MEA-induced Fab-arm exchange between IgG1-2F8-F405L and IgG1-7D8-K409R (from UniProt P01857 1-330)”: the concentration for a half-maximal effect (EC50 (read off the curve)) was determined as 2 µg/mL in assay [2] and 0.4 µg/mL in assay [3].
Consider CH2-CH3 construct G1-F405L, for which the Kd was 850 nM in [4] and 12 nM in assay [5].
Consider “IgG1-7D8 (from UniProt P01857 1-330) (antibody)”, for which the EC50 (read off the curve) in [2] worked out at 0.5 µg/mL; in assay [6], 1 µg/mL.
For the substance CH2-CH3 construct G4-K370E, in assay [7], the Kd was 2 nM and the fold-difference (against wild type CH2-CH3 fragment) stood at 24 fold.
On to CH2-CH3 construct G1-K370T, for which, in assay [8], the Kd was 45 nM and the fold-difference (against wild type CH2-CH3 fragment) came to 0.07 fold.
For CH2-CH3 construct G1-K409R, in assay [9], the dissociation constant Kd came out at 110 nM and the fold-difference (against wild type CH2-CH3 fragment) was 0.03 fold. This substance also had a Kd in [10] of 110 nM.
On to CH2-CH3 construct G4-K370Q, for which, in [11], the Kd is 11 nM and the fold-difference (against wild type CH2-CH3 fragment) is 4.3 fold.

By Kd is commonly meant the concentration at which binding is half-saturated. High values mean weaker binding, low ones tighter binding. The EC50 (read off the curve) is the concentration that produces a half-maximal response.
